Reference: the nanobody polyreactivity screen of Harvey et al. (2022)

Test: yeast display, Sf9 membrane polyspecificity reagent, FACS + sequencing; frameworks hold sequencing errors
Outline: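 After 36–48 hours of galactose induction, yeast (Saccharomyces cerevisiae BJ5465) displaying a synthetic nanobody library were stained at 4 °C for 1 hour with 10% biotinylated, detergent-solubilized Sf9 membrane reagent. Streptavidin microbeads enriched the stained cells before FACS sorting into low and high (top ~1%) gates on anti-HA and streptavidin fluorescence. Each clone's polyreactivity label reflects its gate of origin.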

## QVQLVESGGGLVQAGGSLRLSSAASGRIFRWYAMGWYRQAPGKERELVATISSTGGSTYYADSVKGRFTISRDNAKNTVYLQMNSLKPEDTAVYYSNAVVYGIFLYAWYDYWGQGTQVTVSS
  polyreactivity (PSR sort gate): low polyreactivity

## QVQLVESGGGLVQAGGSLRLSSAASGRIFRYYTMGWYRQAPGKERELVATITSDGRTNYADSVNGRFTISRDNAKNSVYLQMNSLKPEDTAVYYCAARYVMGGQGTSRRVGGGYWGQGTQVTVSS
  polyreactivity (PSR sort gate): high polyreactivity

## QVQLVESGGGLVQAGGSLRLSSAASGRIFSRYAMGWYRQAPGKERELVAAITQSGTSTYYADSVKGRFTISRDNAKNTVYLQMNSLKPEDTAVYYCNAYRQYRYDYWGQGSQVTVSS
  polyreactivity (PSR sort gate): low polyreactivity

## QVQLVESGGGLVQAGGSLRLSSAASGRIFYGYAMGWYRQAPGKERELVAGISKRGGSTRYADSVKGRFTISRDNAKNTVYLHMNSLKPEDTAVYYCNRLPYLHYAGRLTNYDYWGQGTQVTVSS
  polyreactivity (PSR sort gate): high polyreactivity

## QVQLVESGGGLVQAGGSLRLSSAASGRIFYKYAMGWNRQAPGKERELVAGITGSGGSTYYADSVKGRFTISRDNAKNTVYLQMNSLKPEDTAVYYCAKRVSYDYWGQGTQVTVSS
  polyreactivity (PSR sort gate): low polyreactivity

## QVQLVESGGGLVQAGGSLRLSSAASGRISDFYTMGWYRQAPGKERELVAVIRTSGGRTNYADSVKGRFTISRDNAKNTVYLQMNSLKPEDTAVYYCAARVVRYGYKYYYWGQGTQVTVSS
  polyreactivity (PSR sort gate): low polyreactivity

## QVQLVESGGGLVQAGGSLRLSSAASGRTFAWNAMGWYRQAPGKERELVAAISYNGGRTYYADSVKGRFTISRDNAKNTVYLQMNSLKPEDTAVYYCAAQRYGYWGQGTQVTVSS
  polyreactivity (PSR sort gate): high polyreactivity

## QVQLVESGGGLVQAGGSLRLSSAASGRTFAWYAMGWYRQAPGKERELVAAISSGGSTYYADSVKGRFTISRDNAKNTVYLQMDSLKPEDTAVYYCAAEWHYIYAYDYWGQGTQVTVSS
  polyreactivity (PSR sort gate): low polyreactivity

## QVQLVESGGGLVQAGGSLRLSSAASGRTFFRSGMGWYRQAPGKEREFVAAITRSGTTTYYADSVKGRFTISRDNAKQTVYLPMNSLQPEDTAVYYCAAQRAAPVDGKSDYWGHGTQVTVSS
  polyreactivity (PSR sort gate): low polyreactivity

## QVQLVESGGGLVQAGGSLRLSSAASGRTFNYYTMGWYRQAPGKERELVAAITNGGSTNYADSVKGRFTISRDNAKNTVYLQMNSLKPEDTAVYYCNADAFAFRTLHYDYWGQGTQVTVSS
  polyreactivity (PSR sort gate): low polyreactivity

## QVQLVESGGGLVQAGGSLRLSSAASGRTFRGNAMGWYSQAPGKERELVAAIRWNGGSTYYADSVKGRFTISRDNAKNTVYLQMNSLKPEDTAVYYCAVSYWYSRYDYWGQGTQVTVSS
  polyreactivity (PSR sort gate): high polyreactivity

## QVQLVESGGGLVQAGGSLRLSSAASGRTFSAYAMGWYRQAPGKERELVARITSVDSTNYADSVKGRFTISRDNAKNTVYLQMNSLKPEDTAVYYCNVVNEHQSDFVVPFDYNHWGQGTQVTVSS
  polyreactivity (PSR sort gate): low polyreactivity

## QVQLVESGGGLVQAGGSLRLSSAASGRTFSRYAMGWYRQAPGKERELVATISWSGGSTYYADSVKGRFTISRDNAKNTVYLQMNSLNPEDTAVYYCAAKGVYQYRFTKYGYWGQGTQVTVSS
  polyreactivity (PSR sort gate): high polyreactivity

## QVQLVESGGGLVQAGGSLRLSSAASGRTFTHYAMGWYSQAPGKERELGASISDGGRTHYADSVKGRFTISRDNAKNTVSLQMNSLKPVDPAVYYCATDRYPTRRYDYWGQGSQVTVSS
  polyreactivity (PSR sort gate): low polyreactivity

## QVQLVESGGGLVQAGGSLRLSSAASGRTIAYYTKGWYRQAPGKVRELVAAITWTGGRTYYPDSVKGRFTISRDIAKNTVYLQMNSLQPEDTAVYYCATQHRAGAYYLYTPYDYWGQGTQVTVSS
  polyreactivity (PSR sort gate): high polyreactivity

## QVQLVESGGGLVQAGGSLRLSSAASGRTLIWYTMGWYRPAPGKERELVAAITSGGSTYYADSVKGRFTISRDNAKNTVYLQMNSLKPEDTAVYYCNARSAFWGWGYGSYDYWGQGTQVTVSS
  polyreactivity (PSR sort gate): low polyreactivity

## QVQLVESGGGLVQAGGSLRLSSAASGSIFASYAMGWYRQAPGKERELVAAISRSGGSTYYADSVKGRFTISRDNAKNTVYLQMNSLIPEDTAVYYCATGKIREDDYWGQGTQVTVSS
  polyreactivity (PSR sort gate): high polyreactivity

## QVQLVESGGGLVQAGGSLRLSSAASGSIFAYYAMGWSRQAPGKEWELVAAITSGGNTKYADSVKGRFTISRDNAKNTVYLQMNCLKPEDTAVYYCASYRTRALWGQGYGYWGHGTQVTVSS
  polyreactivity (PSR sort gate): high polyreactivity

## QVQLVESGGGLVQAGGSLRLSSAASGSIFELNAMGWYRQAPGKERELVAAIRWRTGRTYYADSVKGRFTISRDNAKNTVYLQMNSLKPEDTAVYYCARVAPASGVRWYYYWGQGTQVTVSS
  polyreactivity (PSR sort gate): high polyreactivity

## QVQLVESGGGLVQAGGSLRLSSAASGSIFLFYAMGWYRQAPGKERELVATITTGAGSTYYADSVKGRFTISRDNAKNTVFLQMNSLKPEDTAVYYCAATVSYDFGYVAVSYDYWGQGTQVTVSS
  polyreactivity (PSR sort gate): low polyreactivity

## QVQLVESGGGLVQAGGSLRLSSAASGSIFNYNAMGWYRQAPGKERELVAAISSSGSTNYADSVKGRFTISRDNAKNTVYLQMNSLKPEDTAVYYCAADYGSYGVVRAVSIEYEYWGQGTQVTVSS
  polyreactivity (PSR sort gate): low polyreactivity

## QVQLVESGGGLVQAGGSLRLSSAASGSIFQDYAMGWYRQEPGKERELVAGINWRGDDTYADSVKGRFTISRDNAKNTVYLQMNSLKPEDTAVYYCNAEDWGYGYDYWGQGTQVTVSS
  polyreactivity (PSR sort gate): low polyreactivity

## QVQLVESGGGLVQAGGSLRLSSAASGSIFQYYTMGWYRQAPGKERELVASISSDGSTYYADSVKGRFTISRDNAKNTVYLQMNSLKPEDTAVYYCADVLWEPPVHPGYDYWGQGTQVTVSS
  polyreactivity (PSR sort gate): low polyreactivity

## QVQLVESGGGLVQAGGSLRLSSAASGSIFRNAMGWYRQAPGKERELVAGINGSGGSTYYADSVKGRFTISRDNAKNTVYLQMNSLKPEDTAVYYCAAGTSKPTPIYGYWGQGTQVTVSS
  polyreactivity (PSR sort gate): low polyreactivity

## QVQLVESGGGLVQAGGSLRLSSAASGSIFRSNAMGWYRQAPGKERELVAAIDYSGTSTTYADSVKGRFTISRDNAKNTVYLQMNRLKPEDTAVYYCNADGYYRGYWSGYEYWGQGTQVTVSS
  polyreactivity (PSR sort gate): low polyreactivity

## QVQLVESGGGLVQAGGSLRLSSAASGSIFSIYAMGWYRQAPGKERELGAAITWSGGSTYYADSVKGRFTISRDNAKNTVYFQMNSLKPEDTAVYYCAAEIWFYYGGRKQRGGYWGQGTQVTVSS
  polyreactivity (PSR sort gate): high polyreactivity

## QVQLVESGGGLVQAGGSLRLSSAASGSIFSSYAMGWYRQAPGKERELVAAITKRADRTNYADSVKGRFTISRDNAKNTVYLQMNSLKPEDTAVYYCNAEGQNDHPSNGYISYKYDYWGQGTQVTVSS
  polyreactivity (PSR sort gate): low polyreactivity

## QVQLVESGGGLVQAGGSLRLSSAASGSIFVKNARGWYRQAPGKVRELVARISFSGGSTYYADSVKGRFTISRDNAKNTVYLQMNSLKPEDTAVYYCAKTVLRTEYGWWIKFDYWGQVTQVTVSS
  polyreactivity (PSR sort gate): low polyreactivity

## QVQLVESGGGLVQAGGSLRLSSAASGSIFYGYAMGWYRQAPGKERELVATISWSAGSTYYADSVKGRFTISRDNAKTTVYLQMNSLKPEDTAVYYCATRVFTSSYRYRYGYWGQGTQVTVSS
  polyreactivity (PSR sort gate): high polyreactivity

## QVQLVESGGGLVQAGGSLRLSSAASGSIFYRYAMGWYRQAPGKERELVAAITQSTDSTYYADSVKGRFTISRDNAKYNVYLQMNSLKPEDTAVYYCAAYLVYYRPYAYGYWGQGSQVTVSS
  polyreactivity (PSR sort gate): low polyreactivity

## QVQLVESGGGLVQAGGSLRLSSAASGSIFYVYAMGWYRQAPGKERELVAAISGGGGSTYYADSVKGRFTISRDNAKNTVYLQMNSLKPEDTAVYYCAADLSGGPYLGGYDYWGQGTQVTVSS
  polyreactivity (PSR sort gate): high polyreactivity
